# Assay results reported in the nanobody polyreactivity screen of Harvey et al. (2022).
# Experiment: yeast display, Sf9 membrane polyspecificity reagent, FACS + sequencing; frameworks hold sequencing errors
# Summary of the method: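 A nanobody's polyreactivity label depends on the gate it was sorted from. Yeast display cells were stained with 10% biotinylated, detergent-solubilized Sf9 membrane reagent for 1 hour at 4 °C, enriched on streptavidin microbeads and sorted by FACS. The low and high (top ~1%) gates were set on anti-HA fluorescence for expression and streptavidin fluorescence for reagent binding.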
row,Sequence,polyreactivity (PSR sort gate)
1,QVQLVESGGGLVQAGGSLRLSCAASGFTFHYYAMGWYRQAPGKERELVAAISRGGGNTYYADSVKGRFTISRDNAKNTVYLQMNSLKPEDTAVYYCAADSKYRFSHGLDYWGQGTQVTVSS,high polyreactivity
2,QVQLVESGGGLVQAGGSLRLSCAASGFTFIPNAMGWYRQAPGKERELVADITWSGGTTYYADSVKGRFTISRDNAKNTVYFQMNSLKPEDTAVYYCNADYLFYAFDYWGQGTQVTVSS,low polyreactivity
3,QVQLVESGGGLVQAGGSLRLSCAASGFTFISNAMGWYRQAPGKERELVAAISSAGGRTYYADSVKGRFTISRATAKITVYLQMNTLKPEDTEVYYSNADRSLLYSRKIEYDSWGQGTQVTVSS,low polyreactivity
4,QVQLVESGGGLVQAGGSLRLSCAASGFTFIYYAMGWYRQAPGKERELVAAIRWSGGSTYYADSVKGRFTISRDNAKNTVYLQMNSLKPEDTAVYYCAASWYWFAQKRVYYWGQGTQVTVSS,high polyreactivity
5,QVQLVESGGGLVQAGGSLRLSCAASGFTFIYYAMGWYRQAPGKERELVAAITSGGNTYYADSVKGRFTISRDNAKNTVYFQMNSLKPEDTAVYYCNKVPHREWVGGYDYWGQGTQVTVSS,low polyreactivity
6,QVQLVESGGGLVQAGGSLRLSCAASGFTFKGNAMGWKRPAPGKERELVAGISRSGRTYYADSVKGRFTISRDNAKNTVYLQMNSLKPEDTAVYYCNVVYTYWRYYRWREYDYWGQGTQVTVSS,high polyreactivity
7,QVQLVESGGGLVQAGGSLRLSCAASGFTFKKNAMGWYRPAPGKERELVAAISRSGGITYYADSVKGRFTISRDNAKNTVYLQMNSLKPEDTAVSYCATQTYRTPAYPAYGYWGQGTQVTVSS,high polyreactivity
8,QVQLVESGGGLVQAGGSLRLSCAASGFTFKLYAMGWYRQAPGKERELVAAISSSGGRTYYADSVKGRFTISRDNAKYNVYLQMNSLKPEDTAVYYCNAVRTVNDYHYDYWGQGTQVTVSS,high polyreactivity
9,QVQLVESGGGLVQAGGSLRLSCAASGFTFKPYTMGWYRQAPGKERELVAAISRSGGSTYYADSVKGRFTISRDNAKNTVYLQMNSLKPEDTAVYYCAKRGNSWYLGGSWGQGTQVTVSS,high polyreactivity
10,QVQLVESGGGLVQAGGSLRLSCAASGFTFKRNGMGWYRQAPGKERELVAAISSSGGNTYYADSVKGRFTISRDNAKNTVYLQMNSLKPEDTAVYDCAAASRYFDRDYWGQGTQVTVSS,high polyreactivity
11,QVQLVESGGGLVQAGGSLRLSCAASGFTFKRYAMGWYRQAPGKERELVAAISYGGSRTYYADSVKGRFTISRDNAKNTVYLQMNSLKPEDTAVYYCNFRRRTWHYITSMDYWGQGTQVTVSS,high polyreactivity
12,QVQLVESGGGLVQAGGSLRLSCAASGFTFKRYAMGWYRQARGKERELVAAISWSGSSTYYADSVKGRFTISRDNAKNTVYLQMNSLKPEDTAVYYCAARSFRPAYDYWGQGTQVTVSS,high polyreactivity
13,QVQLVESGGGLVQAGGSLRLSCAASGFTFKSYAMGWYRPAPGKERELVAGITRTGVSTYYADSVKGRFTISRDNAKNTVYLLMNSLKPEDTAVYYCAAGIRHIYQSYAFYKFDYWGQGTQVTVSS,high polyreactivity
14,QVQLVESGGGLVQAGGSLRLSCAASGFTFKVYAMGWYRQAPGKERELVAAISKSGGSTYYADSVKGRFTISRDNAMNTVYLQMNSLKPEDTAVDYCATGGYAYVYPYDYWGQGTQVTVSS,low polyreactivity
15,QVQLVESGGGLVQAGGSLRLSCAASGFTFKWYTMGWYRQAPGKERELVAGISRRGGSTYYADSVKGRFTISRDNAKNTFYLQMNSLKPEDTAVYYCAADSKLTKFYYWGQGTQVTVSS,high polyreactivity
16,QVQLVESGGGLVQAGGSLRLSCAASGFTFKWYTMGWYRQAPGKERELVAGISRRGGSTYYADSVKGRFTISRDNAKNTVYLQMNSLKPEDTAVYYCAAEFPTVYFPWSEMDYWGQGTQVTVSS,high polyreactivity
17,QVQLVESGGGLVQAGGSLRLSCAASGFTFKYNAMGWYRQAPGKERELVASISSGSTNYADSVKGRFTISRDNAKNTVYLQMNSLKPEDTAVYYCSASVSRGKRFRYGYVFKMDYWGQGTQVTVSS,low polyreactivity
18,QVQLVESGGGLVQAGGSLRLSCAASGFTFKYYALGWYRQAPGKERELVAAIRGSGAGTYYADSVKGRFTISRDNSKNTVYLQMNSLKPEDTAVYYCNNRWTYKWDDYWGQGTQVTVSS,high polyreactivity
19,QVQLVESGGGLVQAGGSLRLSCAASGFTFKYYAMGWYRQAPGKERELVAAITWSGGSTYYADSVKGRFTISRDNAKNTVYLQMNSLKPEDTAVYYCNAKVYQISRYGYWGQGTQVTVSS,high polyreactivity
20,QVQLVESGGGLVQAGGSLRLSCAASGFTFLAYSMGWYRQAPGKERELVAAIRWSGRRTYYADSVKGRFTISRDNAKNTVYLQMNSLKPEDTAVYYCAADTRRVREYNYWGQGTQVTVSS,low polyreactivity

row,Sequence,polyreactivity (PSR sort gate)
1,QVQLVESGGGLVQAGGSLRLSCAASGFTFLNYAMGWYRQAPGKERELVAAITRSGGSTYYADSVKGRFTISRDTAKNTVYLQMNSLKPEDTAVYYCAIGYYSPNYYYWGQGTQVTVSS,high polyreactivity
2,QVQLVESGGGLVQAGGSLRLSCAASGFTFLRYAMGWYRPAPGKERELVAVITYGGGSTYYADSVKGRFTISRDNAKNTVYLQMNSLKPEDTAVYYCALYPRRAGGDYWGQGTQVTVSS,high polyreactivity
3,QVQLVESGGGLVQAGGSLRLSCAASGFTFLWYGMGWYRQAPGKERELVAAISSSGGSTYYADSVKGRFTISRDNAKNTVFLQMNSLKPEDTAVYYCAVAVSNQYVRYGYWGQGTQVTVSS,low polyreactivity
4,QVQLVESGGGLVQAGGSLRLSCAASGFTFLYYDMGWYRQAPGKERELVAAITSSGTSTYYADSVKGRFTISRDNAKNTVYLQMNSLKPEDTAVYYCAVLYTYAGRHRYGYWGQGTQVTVSS,high polyreactivity
5,QVQLVESGGGLVQAGGSLRLSCAASGFTFNANAMGWYRQAPGKERELVAVITRSGGRTYYADSVKGRFTISRDNAKNTVYLQMNSLKPEDTEVYYCAKECPSRVYQGTDSASDYWGQGTQVTVSS,high polyreactivity
6,QVQLVESGGGLVQAGGSLRLSCAASGFTFNDNDMGWYRQAPGKEWELVAAITYGGSTYYADSVKGRFTISRENAKNTVYLQMNSLKPEDTAVYYCNVEFFFWPYEYGYWGQGTQVNVSS,low polyreactivity
7,QVQLVESGGGLVQAGGSLRLSCAASGFTFNDYAMGWYRQAPGKERELVAAIDWSGGRTYYADSVKGRFTISRDNAKNTVYLQMNSLKPEDTAVYYCAAVLYSRMYWYRLDYWGQGTQVTVSS,low polyreactivity
8,QVQLVESGGGLVQAGGSLRLSCAASGFTFNFYVMGWYRQAPGKERELVAAITSNGGSTYYADSVKGRFTISRDNAKNTVYLQMNSLKPEDTAVYYCAADQYPTWSYLPFDYWGQGTQVTVSS,high polyreactivity
9,QVQLVESGGGLVQAGGSLRLSCAASGFTFNGYAMGWYRQAPGKERELVAGITRRGGITYYADSVKGRFTISRDNAKNTVYLQMNSLNPEDTAVYYCNAYPRYIIPSIVNGYNYWGQGTQVTVSS,high polyreactivity
10,QVQLVESGGGLVQAGGSLRLSCAASGFTFNGYARGWYRQAPGKDRELVATMTNGGSTYYADSVKGRFTISRDNAKNTVYLQMNSLKPEDTAVYYCAAESEQATPGYLAPLFDYWGQGTQVTVSS,low polyreactivity
11,QVQLVESGGGLVQAGGSLRLSCAASGFTFNRNAMGWYRQAPGKERELVAAISWSGGSTYYADSVKGRFTLSRDNAKNTVYLQMNSLKPEETAVYYCAKGYRRVYGPFYYWGQGTQVTVSS,low polyreactivity
12,QVQLVESGGGLVQAGGSLRLSCAASGFTFNRYAMGWYRQAPGKERELVAAISWSGTSTYYADSVKGRFTISRDNAKNTVYLQMNSLKPEDTAVYYCATRQTHSYDYWGQGTQVTVSS,high polyreactivity
13,QVQLVESGGGLVQAGGSLRLSCAASGFTFNRYAMGWYRQAPGKERELVASITTGGRTNYADSVKGRFTISRDNAKNTVYLQMNSLKPEDTAVYYCAADYGYFYRYYYWGQGTQVTVSS,high polyreactivity
14,QVQLVESGGGLVQAGGSLRLSCAASGFTFNSYAMGWYRQAPGKERELLAAISRIGGITYYADSVKGRFTISRDNAKNTVYLQMNSLKPEDTAVYYCNTASVYVYTGRYDYWGQGTQVTVSS,high polyreactivity
15,QVQLVESGGGLVQAGGSLRLSCAASGFTFNSYAMGWYRQAPGKERELVAAITSSGGLTYYADSVKGRFTISRDNAKNTVYLQKNSLKPEDTAVYYCAARPGGKVATIYDYWGQGTQVTVSS,low polyreactivity
16,QVQLVESGGGLVQAGGSLRLSCAASGFTFNTYAMGWYRQAPGKERELVAAITTSGGSTYYADSVKGRFTISRDNAKNTVYLQMNSLKPEDTAVYSCAAKSGRGVVRGRDDYWGQGTQVTVSS,high polyreactivity
17,QVQLVESGGGLVQAGGSLRLSCAASGFTFPAYTMGWYRQAPGKEREWVAAITSSGGNTYYADSVKGRFTISRDNAKNTVYLQMNSLKPEDTAVYYCATVSVRWPSNDHVRYDYWGQGTQVTVSS,low polyreactivity
18,QVQLVESGGGLVQAGGSLRLSCAASGFTFPENAMGWYRQAPGKERELVAAISYRGASTFYADSVKGRFTISRDNAKNTVYLQLISLKPEDTAVYYCATDPRIRYQGNPYDYWGQGTQVTVSS,high polyreactivity
19,QVQLVESGGGLVQAGGSLRLSCAASGFTFPEYDMGWYRQAPGKERELVAAINYSDGRTFYADSVKGRFTISRDNAKNTVYLQMNSLKPEDTAVYYCATDLSYDVWFFGPDYDYWGQGTQVTVSS,low polyreactivity
20,QVQLVESGGGLVQAGGSLRLSCAASGFTFPFNAMGWYRQAPGKERELVAAISQRTGRTYYADSVKGRFTISRDNAKNTVYLQMNSLKPEDTAVYYCNARTGTTGYGRYDYWGQGTQVTVSS,high polyreactivity
